# Measurements from PMC5183740.
# How the values were obtained:
# [1] = target: SA-HA2 (streptavidin core fused to residues 76-130 of HA2 of A/PARIS/2590/2009 (H1N1)) (Streptomyces avidinii | influenza A virus A/PARIS/2590/2009 (H1N1)); test: SDS-PAGE of unheated samples
# [2] = target: SA-NP (streptavidin core fused to the nucleoprotein NP of A/PARIS/2590/2009 (H1N1)) (Streptomyces avidinii | influenza A virus A/PARIS/2590/2009 (H1N1)); test: SDS-PAGE of unheated samples
Substance,stoichiometry N [1],stoichiometry N [2]
SA-HA2 (streptavidin core fused to residues 76-130 of HA2 of A/PARIS/2590/2009 (H1N1)),4,–
SA-NP (streptavidin core fused to the nucleoprotein NP of A/PARIS/2590/2009 (H1N1)),–,4
